Assays:
TMR-α-casein [1] = assay: Protease assay by fluorescence polarization of TMR-α-casein substrate, commercial fluorescence spectrometer; type: biochemical; conditions: time course, varying enzyme concentrations (unit/mL); FIGS. 9A-9D
Description: Changes of fluorescence polarization FP were measured using the method and apparatus for measuring fluorescence polarization of the present invention, employing TMR-α-casein as a substrate, composed of TMR as a fluorescent probe and α-casein, a universal protein substrate reacted with various proteases.
First, TMR-α-casein, a fluorescently labeled substrate for proteases, was prepared by applying one of the well-known methods [Analytical Biochemistry (,1996) 243, 1-7] as follows.
10 mg/mL of α-casein (sigma) and 5 mg/mL of 5-carboxytetramethylrhodamine succinimidyl ester were mixed in 0.1 M sodium bicarbonate buffer solution (pH 9.0) for reaction at room temperature for two and a half hours. The resulting TMR-α-casein was purified by passing the reaction mixture over a HiTrap desalting column (Sephadex G-25 Amersham Bioscience), and used after quantitation of the amounts of protein and fluorescence.
Proteinase K, trypsin, papain and elastase were used as proteases to react at increasing concentrations. First, as a comparative example, the process that the TMR-α-casein substrate was degraded by the proteases was analyzed using a commercial fluorescence spectrometer (Perkin Elmer). […]

TMR-α-casein [2] = assay: On-chip protease assay by fluorescence polarization of TMR-α-casein substrate, lab-on-a-chip with optical chopper; type: biochemical; conditions: 1 μM TMR-α-casein final in channel; reaction time 5.1 seconds; FIGS. 10A-10D
Description: Next, the protease assays were carried out using an apparatus for measuring fluorescence polarization including the optical chopper of FIG. 2 on a lab-on-a-chip of glass composed of a channel 1 C1, in which substrates or enzymes flowed, and a channel 2 C2, in which the reaction occurred, the channels having a depth of 12 μm and a width of 79 μm as depicted in FIG. 8.
For on-chip protease assays, the substrates and the enzymes should mix completely prior to the enzyme reactions. […] […] Therefore, the reaction time was confirmed to be 5.1 seconds after mixing of the substrate with the enzymes.
Subsequently, to carry out the protease assays in the lab-on-a-chip,2 μM of TMR-α-casein (the final concentration in the channel was 1 μM) was placed in a substrate reservoir and the respective proteases were placed in an enzyme reservoir at increasing concentrations in the same manner as the comparative example. Then, the two substances were allowed to flow into a channel 2 C2, a main channel, to cause a reaction. Fluorescence polarization FP was then measured at the detection point, positioned 32 mm away from the junction, from which the substrates and the enzymes flowed in.
Again, it was noted that fluorescence polarization values plateaued when the concentration of the enzymes reached at the point generating a specific rate or more.

Row | change of fluorescence polarization values of TMR-α-casein with enzyme concentration (TMR-α-casein [2]) | Molecule | change of fluorescence polarization values of TMR-α-casein as the reaction proceeded (TMR-α-casein [1])
1 | decreased with increasing concentrations | proteinase K: protease reacted with TMR-α-casein substrate (protein, UniProt P06873 106-384, looked up) Proteinase K: AAQTNAPWGLARISSTSPGTSTYYYDESAGQGSCVYVIDTGIEASHPEFEGRAQMVKTYYYSSRDGNGHGTHCAGTVGSRTYGVAKKTQLFGVKVLDDNGSGQYSTIIAGMDFVASDKNNRNCPKGVVASLSLGGGYSSSVNSAAARLQSSGVMVAVAAGNNNADARNYSPASEPSVCTVGASDRYDRRSSFSNYGSVLDIFGPGTSILSTWIGGSTRSISGTSMATPHVAGLAAYLMTLGKTTAASACRYIADTANKGDLSNIPFGTVNLLAYNNYQA | decreased
2 | decreased with increasing concentrations | papain: protease reacted with TMR-α-casein substrate (protein, UniProt P00784 134-345, looked up) Papain: IPEYVDWRQKGAVTPVKNQGSCGSCWAFSAVVTIEGIIKIRTGNLNEYSEQELLDCDRRSYGCNGGYPWSALQLVAQYGIHYRNTYPYEGVQRYCRSREKGPYAAKTDGVRQVQPYNEGALLYSIANQPVSVVLEAAGKDFQLYRGGIFVGPCGNKVDHAVAAVGYGPNYILIKNSWGTGWGENGYIRIKRGTGNSYGVCGLYTSSFYPVKN | decreased

— patent US20070117220A1, “METHOD AND APPARATUS FOR MEASURING FLUORESCENCE POLARIZATION IN LAB-ON-A-CHIP” (priority 2005, published 2007)
